Results from paper PMC6699511.
One block for each molecule: values may come before it.

Key:
[1] = molecular target: his-HCF[K919I, A933L], His-tagged myosin heavy chain fragment with coiled-coil stabilizing mutations (Mus musculus); assay: SEC
[2] = molecular target: his-HCF, His-tagged myosin heavy chain fragment K810-E934 (Mus musculus); assay: pull-down
[3] = molecular target: his-HCF[K919I, A933L], His-tagged myosin heavy chain fragment with coiled-coil stabilizing mutations (Mus musculus); assay: pull-down

stoichiometry N [1]: 2
Molecule: his-HCF[K919I, A933L], His-tagged myosin heavy chain fragment with coiled-coil stabilizing mutations (domain or fragment)

stoichiometry N (RLC per his-HCF) [2]: 1
stoichiometry N (RLC per his-HCF[K919I, A933L]) [3]: 1
B1: myosin regulatory light chain without His-tag (RLC), P97457 1-169 (natural protein)
chain: MPKCAKRRAGAEGSSNVFSMFDQTQIQEFKEAFTVIDQNRDGIIDKEDLRDTFAAMGRLNVKNEELDAMMKEASGPINFTVFLTMFGEKLKGADPEDVITGAFKVLDPEGKGTIKKQFLEELLTTQCDRFSQEEIKNMWAAFPPDVGGNVDYKNICYVITHGDAKDQE
modifications: not checked
